{
  "source": "paper PMC12247033",
  "about": "“Exploring the Stability and Substrate Profile of Transaminase from Silicibacter pomeroyi with Ancestral Sequence Reconstruction” (Chembiochem, 2025)",
  "proteins": {"B1": {"name": "Sp-ATA (Ruegeria pomeroyi DSS-3) (protein)", "chain": "MATITNHMPTAELQALDAAHHLHPFSANNALGEEGTRVITRARGVWLNDSEGEEILDAMAGLWCVNIGYGRDELAEVAARQMRELPYYNTFFKTTHVPAIALAQKLAELAPGDLNHVFFAGGGSEANDTNIRMVRTYWQNKGQPEKTVIISRKNAYHGSTVASSALGGMAGMHAQSGLIPDVHHINQPNWWAEGGDMDPEEFGLARARELEEAILELGENRVAAFIAEPVQGAGGVIVAPDSYWPEIQRICDKYDILLIADEVICGFGRTGNWFGTQTMGIRPHIMTIAKGLSSGYAPIGGSIVCDEVAHVIGKDEFNHGYTYSGHPVAAAVALENLRILEEENILDHVRNVAAPYLKEKWEALTDHPLVGEAKIVGMMASIALTPNKASRAKFASEPGTIGYICRERCFANNLIMRHVGDRMIISPPLVITPAEIDEMFVRIRKSLDEAQAEIEKQGLMKSAA", "notes": "wild type, pET22b(+), E. coli BL21(DE3), Ni-NTA purified (His-tag), homodimer"}, "B2": {"name": "N49 (synthetic construct) (protein)", "chain": "MSMSTITNHMPTAELQALDAAHHMHPFTTNNELAEKGARVITRAKGVWLTDSEGEEILDAMAGLWCVNIGYGRDELAEVAARQMRELPYYNTFFQTTHVPAIALAAKLAELAPGDLNHVFFAGGGSEANDTNIRMVRTYWAEKGKPEKNIIISRKNAYHGSTVGSASLGGMAGMHAQGGLPIPDIHHIDQPNWWAEGRPGDTGMTPEEFGLARARELEQAILELGEDRVAAFIAEPVQGAGGVIVAPDTYWPEIQRICDKYEILLIADEVICGFGRTGNWFGSQTMGIRPHIMTIAKGLSSGYAPIGGSIVCDEVAEVIIGGKCEFNHGYTYSGHPVAAAVALENLRILEEENIIDHVRNVAAPYLKEKWEALTDHPLVGEAKIVGMMGSIALTPDKATRAAFASEPGTVGYICRERCFANNLVMRHVGDRMIISPPLVITPEEIDTLIERARKSLDEAHAELKRQGLMKAAG", "notes": "pET22b(+), E. coli BL21(DE3), Ni-NTA purified"}, "B3": {"name": "N50 (synthetic construct) (protein)", "chain": "MSMSTITNHMPTAELQALDAAHHMHPFSTNNELAEEGVRVITRAKGVWLTDSEGEEILDAMAGLWCVNIGYGRDELAEVAARQMRELPYYNTFFKTTHVPAIALAQKLAELAPGDLNHVFFAGGGSEANDTNIRMVRTYWAEKGKPEKNVIISRKNAYHGSTVGSASLGGMAGMHAQGGIPIPDIHHINQPNWWAEGRPGDTGMTPEEFGLARARELEEAILELGEDRVAAFIAEPVQGAGGVIVAPDTYWPEIQRICDKYEILLIADEVICGFGRTGNWFGSQTMGIRPHIMTIAKGLSSGYAPIGGSIVCDEVAEVIIGGKCEFNHGYTYSGHPVAAAVALENLRILEEENIIDHVRNVAAPYLKEKWEALTDHPLVGEAKIVGMMGSIALTPDKATRAKFASEPGTIGYICRERCFANNLVMRHVGDRMIISPPLVITPEEIDEMFVRIRKSLDEAHAEILRQGLMKAAG", "notes": "as for B2"}},
  "key": {"[1]": {"substrate": "C[C@H](N)c1ccccc1", "experiment": "purified protein", "format": "biochemical, Ruegeria pomeroyi", "conditions": "co-substrate sodium pyruvate; 5 mM PLP; (S)-PEA 0.1-15 mM"}, "[2]": {"substrate": "C[C@H](N)c1ccccc1", "experiment": "purified protein", "format": "biochemical, synthetic construct", "conditions": "co-substrate sodium pyruvate; 5 mM PLP; (S)-PEA 0.1-15 mM"}},
  "data": [
    {"protein": "B1", "values": [
      {"measurement": "Km", "setting": "[1]", "result": "3.64 ± 0.31", "unit": "mM"},
      {"measurement": "kcat", "setting": "[1]", "result": "6.33 ± 0.19", "unit": "s⁻¹"}
    ]},
    {"protein": "B2", "values": [
      {"measurement": "Km", "setting": "[2]", "result": "2.02 ± 0.19", "unit": "mM"},
      {"measurement": "kcat", "setting": "[2]", "result": "1.10 ± 0.03", "unit": "s⁻¹"}
    ]},
    {"protein": "B3", "values": [
      {"measurement": "Km", "setting": "[2]", "result": "6.22 ± 1.01", "unit": "mM"},
      {"measurement": "kcat", "setting": "[2]", "result": "0.39 ± 0.03", "unit": "s⁻¹"}
    ]}
  ]
}
